For orientation: Kd means the free concentration of one partner at which half of the binding sites on the other are occupied at equilibrium, for simple one-to-one binding. A lower Kd goes with a tighter complex. The koff is the rate constant with which the complex falls apart. Low values mean slow dissociation, high ones fast dissociation.

The values that follow come from patent US20090208447A1 (MEDIGENE, published 2009).

Sequences and labels used below:
B1: SEQ ID NO 6 (receptor)
chain: MGHLPKPTLWAEPGSVITMGQPVTLRCQGGQETQEYRLYREKKTAPWITRIPQELVKKGQFPIPSITWEHAGRYRCYYGSDTAGRSESSDPLELVVTGAYIKPTLSAQPSPVVNSGGNVTLQCDSQVAFDGFILCKEGEDEHPQCLNSQPHARGSSRAIFSVGPVSPSRRWWYRCYAYDSNSPYEWSLPSDLLELLVL
B2: SEQ ID NO 28 (receptor)
chain: B1 chain with M19Q, Q21S, D81Q, T82G, A83G, G84L
B3: SEQ ID NO 36 (receptor)
chain: B1 chain with M19Q, Q21S, A99I, I101L, K102A
B4: SEQ ID NO 40 (receptor)
chain: B1 chain with M19Q, Q21R, A99V
B5: SEQ ID NO 23 (receptor)
chain: B1 chain with W10Q, M19Q, Q21S, Y77V, Y78I, G79Q, S80R, D81G, A99V
B6: SEQ ID NO 25 (receptor)
chain: B1 chain with M19Q, Q21S, S80T, D81Q, A99V
B7: SEQ ID NO 32 (receptor)
chain: B1 chain with G20D, S80T, D81Q, A99V, S168G
B8: SEQ ID NO 26 (receptor)
chain: B1 chain with M19Q, Q21S, Y77M, Y78Q, G79Y, S80T, D81L, A99V
B9: SEQ ID NO 45 (receptor)
chain: B1 chain with M19Q, Q21S, Y77V, Y78G, G79W, S80A, D81V, A99V
B10: SEQ ID NO 48 (receptor)
chain: B1 chain with M19Q, Q21S, Y77Q, Y78G, G79V, D81Q, A99V
B11: SEQ ID NO 42 (receptor)
chain: B1 chain with M19L, A99V, S168G
B12: SEQ ID NO 30 (receptor)
chain: B1 chain with M19Q, Q21S, Y77M, Y78Q, G79Y, S80T, D81L
B13: SEQ ID NO 38 (receptor)
chain: B1 chain with M19Q, Q21S, A99I, I101Q, K102A
B14: SEQ ID NO 35 (receptor)
chain: B1 chain with M19Q, Q21S, A99I, I101R, K102Q
B15: SEQ ID NO 7 (receptor)
chain: B1 chain with G20D, A99V, S168G
B16: SEQ ID NO 24 (receptor)
chain: B1 chain with M19Q, Q21S, D81Q, T82G, A83G, G84L, A99V
B17: SEQ ID NO 39 (receptor)
chain: B1 chain with M19Q, Q21A, A99V, S168G
B18: SEQ ID NO 22 (receptor)
chain: B1 chain with M19L, G20S, A99V
B19: SEQ ID NO 8 (receptor)
chain: B1 chain with M19L, G20M
B20: SEQ ID NO 34 (receptor)
chain: B1 chain with G20D, Y77M, Y78Q, G79Y, S80T, D81L, A99V
B21: SEQ ID NO 29 (receptor)
chain: B1 chain with M19Q, Q21S, S80T, D81Q
B22: SEQ ID NO 41 (receptor)
chain: B1 chain with M19V, A99V, S168G
B23: SEQ ID NO 43 (receptor)
chain: B1 chain with M19Q, Q21S, A99V, S168G
B24: SEQ ID NO 47 (receptor)
chain: B1 chain with M19Q, Q21S, S80G, D81Q, T82E, A83G, G84A, A99V
B25: SEQ ID NO 27 (receptor)
chain: B1 chain with M19Q, Q21S, A83S, G84Q, R85W, E87A, A99V
B26: SEQ ID NO 33 (receptor)
chain: B1 chain with G20D, Y77V, Y78I, G79Q, S80R, D81G, A99V
B27: SEQ ID NO 21 (receptor)
chain: B1 chain with M19L, G20F
B28: SEQ ID NO 9 (receptor)
chain: B1 chain with G20Q, Q21R, K42R, N147S
B29: SEQ ID NO 31 (receptor)
chain: B1 chain with G20D, D81Q, T82G, A83G, G84L, A99V, S168G
B30: SEQ ID NO 44 (receptor)
chain: B1 chain with M19Q, Q21S, I66V, A99V
B31: SEQ ID NO 37 (receptor)
chain: B1 chain with M19Q, Q21S, A99I, I101K, K102A

Where a chain is given by its changes, count along the chain named.

For this assay, the target named is HLA-A*0201 loaded with the Carcinoembryonic antigen (CEA)-derived … peptide (biotinylated on the C-terminal biotinylation tag). Description: SPR (Biacore), Example 4.
In turn, B1 had an equilibrium dissociation constant (Kd) of at most 1 µM and a dissociation rate constant (koff) of at most 2 s⁻¹.

On to B2, for which the equilibrium dissociation constant (Kd) is at most 1 µM and the koff is at most 2 s⁻¹.

With B3, the equilibrium dissociation constant (Kd) is at most 1 µM and the koff is at most 2 s⁻¹.

B4 returned an equilibrium dissociation constant (Kd) of at most 1 µM and an off-rate constant (koff) of at most 2 s⁻¹.

Take B5: the equilibrium dissociation constant (Kd) was at most 1 µM and the koff is at most 2 s⁻¹.

B6 showed an equilibrium dissociation constant (Kd) of at most 1 µM and a koff of at most 2 s⁻¹.

Take B7: the Kd was at most 1 µM and the dissociation rate constant (koff) was at most 2 s⁻¹.

B8: the dissociation constant (Kd) was at most 1 µM and the dissociation rate constant (koff) is at most 2 s⁻¹.

On to B9, for which the Kd is at most 1 µM and the koff was at most 2 s⁻¹.

Molecule B10 yielded a dissociation constant Kd of at most 1 µM and an off-rate (koff) of at most 2 s⁻¹.

With B11, the Kd is at most 1 µM and the off-rate (koff) is at most 2 s⁻¹.

B12 displayed a dissociation constant Kd of at most 1 µM and a koff of at most 2 s⁻¹.

On to B13, for which the Kd was at most 1 µM and the koff was at most 2 s⁻¹.

In turn, B14 returned a Kd of at most 1 µM and an off-rate constant (koff) of at most 2 s⁻¹.

As for B15, the Kd is at most 1 µM and the koff is at most 2 s⁻¹.

In the case of B16, the equilibrium dissociation constant (Kd) was at most 1 µM and the koff was at most 2 s⁻¹.

Consider B17, for which the dissociation constant Kd is at most 1 µM and the dissociation rate constant (koff) was at most 2 s⁻¹.

In turn, B18 showed a dissociation constant (Kd) of at most 1 µM and a koff of at most 2 s⁻¹.

In turn, B19 gave a dissociation constant Kd of at most 1 µM and a dissociation rate constant (koff) of at most 2 s⁻¹.

On to B20, for which the dissociation constant (Kd) was at most 1 µM and the koff was at most 2 s⁻¹.

Molecule B21 gave a Kd of at most 1 µM and an off-rate constant (koff) of at most 2 s⁻¹.

In turn, B22 registered a Kd of at most 1 µM and a koff of at most 2 s⁻¹.

On to B23, for which the equilibrium dissociation constant (Kd) is at most 1 µM and the koff is at most 2 s⁻¹.

On to B24, for which the dissociation constant (Kd) is at most 1 µM and the off-rate constant (koff) is at most 2 s⁻¹.

In turn, B25 gave an equilibrium dissociation constant (Kd) of at most 1 µM and a koff of at most 2 s⁻¹.

As to B26, the Kd is at most 1 µM and the off-rate constant (koff) is at most 2 s⁻¹.

B27 yielded a dissociation constant (Kd) of at most 1 µM and an off-rate (koff) of at most 2 s⁻¹.

B28 displayed a Kd of at most 1 µM and a dissociation rate constant (koff) of at most 2 s⁻¹.

B29 had a Kd of at most 1 µM and a koff of at most 2 s⁻¹.

B30 yielded an equilibrium dissociation constant (Kd) of at most 1 µM and an off-rate constant (koff) of at most 2 s⁻¹.

B31 came in with a Kd of at most 1 µM and a koff of at most 2 s⁻¹.
